In the Immune Epitope Database (IEDB):

Tests used:
Assay in all cases: IEDB peptide-MHC binding, purified MHC/competitive/radioactivity; filed as Kd, often an IC50 or EC50 that approximates it; ≥ and ≤ were set here for values at or beyond the usual limits of such assays
HLA-A*03:01 = target: HLA-A*03:01
HLA-A*11:01 = target: HLA-A*11:01
HLA-A*31:01 = target: HLA-A*31:01
HLA-A*33:01 = target: HLA-A*33:01
HLA-A*68:01 = target: HLA-A*68:01
[1] = source organism: Vaccinia virus WR
[2] = source organism: Mammarenavirus juninense
[3] = source organism: Triticum aestivum
[4] = source organism: Mammarenavirus brazilense
[5] = source organism: Lymphocytic choriomeningitis virus (strain WE)
[6] = source organism: Mammarenavirus machupoense
[7] = source organism: SARS coronavirus Tor2
[8] = source organism: Lassa virus Josiah
[9] = source organism: Mammarenavirus lassaense

NLKAMLYIIR
Kd (HLA-A*03:01; [1]): 8530 nM | Kd (HLA-A*11:01; [1]): 10900 nM | Kd (HLA-A*31:01; [1]): 4840 nM | Kd (HLA-A*33:01; [1]): 133 nM | Kd (HLA-A*68:01; [1]): 209 nM

NSQIFNIISY
Kd (HLA-A*03:01; [1]): 1080 nM | Kd (HLA-A*11:01; [1]): 5090 nM | Kd (HLA-A*31:01; [1]): 1320 nM | Kd (HLA-A*33:01; [1]): 10600 nM | Kd (HLA-A*68:01; [1]): 441 nM

NTIDKSSPLY
Kd (HLA-A*03:01; [1]): 7970 nM | Kd (HLA-A*11:01; [1]): 1660 nM | Kd (HLA-A*31:01; [1]): ≥ 70000 nM | Kd (HLA-A*33:01; [1]): ≥ 70000 nM | Kd (HLA-A*68:01; [1]): 85.4 nM

NVTSMEELAR
Kd (HLA-A*03:01; [1]): 5040 nM | Kd (HLA-A*11:01; [1]): 227 nM | Kd (HLA-A*31:01; [1]): 705 nM | Kd (HLA-A*33:01; [1]): 254 nM | Kd (HLA-A*68:01; [1]): 2.82 nM

PAAEFRRVAH
Kd (HLA-A*03:01; [2]): ≥ 70000 nM | Kd (HLA-A*11:01; [2]): ≥ 69700 nM | Kd (HLA-A*31:01; [2]): 9340 nM | Kd (HLA-A*33:01; [2]): ≥ 24400 nM | Kd (HLA-A*68:01; [2]): ≥ 70100 nM

PADCFLVKLK
Kd (HLA-A*03:01; [1]): 2910 nM | Kd (HLA-A*11:01; [1]): 1510 nM | Kd (HLA-A*31:01; [1]): ≥ 31200 nM | Kd (HLA-A*33:01; [1]): 17100 nM | Kd (HLA-A*68:01; [1]): ≥ 22400 nM

PIINTHSFY
Kd (HLA-A*03:01; [1]): ≥ 78000 nM | Kd (HLA-A*11:01; [1]): ≥ 77900 nM | Kd (HLA-A*31:01; [1]): ≥ 77900 nM | Kd (HLA-A*33:01; [1]): ≥ 77700 nM | Kd (HLA-A*68:01; [1]): ≥ 77700 nM

PLLCTLNKSH
Kd (HLA-A*03:01; [2]): ≥ 70000 nM | Kd (HLA-A*11:01; [2]): ≥ 69700 nM | Kd (HLA-A*31:01; [2]): ≥ 70000 nM | Kd (HLA-A*33:01; [2]): ≥ 70000 nM | Kd (HLA-A*68:01; [2]): ≥ 70100 nM

QITTDDLVK
Kd (HLA-A*03:01; [1]): ≥ 38900 nM | Kd (HLA-A*11:01; [1]): 803 nM | Kd (HLA-A*31:01; [1]): 207 nM | Kd (HLA-A*33:01; [1]): 3750 nM | Kd (HLA-A*68:01; [1]): 436 nM

QLLQELCCQH
Kd (HLA-A*03:01; [3]): ≥ 27100 nM | Kd (HLA-A*11:01; [3]): ≥ 69800 nM | Kd (HLA-A*31:01; [3]): ≥ 70000 nM | Kd (HLA-A*33:01; [3]): ≥ 70000 nM | Kd (HLA-A*68:01; [3]): 17400 nM

QMDSMEALEY
Kd (HLA-A*03:01; [1]): 1710 nM | Kd (HLA-A*11:01; [1]): 755 nM | Kd (HLA-A*31:01; [1]): ≥ 70000 nM | Kd (HLA-A*33:01; [1]): ≥ 70000 nM | Kd (HLA-A*68:01; [1]): 11800 nM

QTVDFTDCR
Kd (HLA-A*03:01; [1]): ≥ 35500 nM | Kd (HLA-A*11:01; [1]): 348 nM | Kd (HLA-A*31:01; [1]): 722 nM | Kd (HLA-A*33:01; [1]): 5810 nM | Kd (HLA-A*68:01; [1]): 1.57 nM

RLSILSKDK
Kd (HLA-A*03:01; [1]): 613 nM | Kd (HLA-A*11:01; [1]): 1210 nM | Kd (HLA-A*31:01; [1]): 10700 nM | Kd (HLA-A*33:01; [1]): 12900 nM | Kd (HLA-A*68:01; [1]): 1080 nM

RTMPNESRVK
Kd (HLA-A*03:01; [1]): 25.1 nM | Kd (HLA-A*11:01; [1]): 4.57 nM | Kd (HLA-A*31:01; [1]): 123 nM | Kd (HLA-A*33:01; [1]): ≥ 70000 nM | Kd (HLA-A*68:01; [1]): 1120 nM

SMGFKVTTRR
Kd (HLA-A*03:01; [1]): 97.2 nM | Kd (HLA-A*11:01; [1]): 1050 nM | Kd (HLA-A*31:01; [1]): 22.1 nM | Kd (HLA-A*33:01; [1]): 747 nM | Kd (HLA-A*68:01; [1]): 213 nM

SMLTNAISSR
Kd (HLA-A*03:01; [1]): 505 nM | Kd (HLA-A*11:01; [1]): 258 nM | Kd (HLA-A*31:01; [1]): 117 nM | Kd (HLA-A*33:01; [1]): 2330 nM | Kd (HLA-A*68:01; [1]): 218 nM

SMTIREFPR
Kd (HLA-A*03:01; [1]): 14800 nM | Kd (HLA-A*11:01; [1]): 599 nM | Kd (HLA-A*31:01; [1]): 0.164 nM | Kd (HLA-A*33:01; [1]): 1.94 nM | Kd (HLA-A*68:01; [1]): 200 nM

SNSKEIPSFR
Kd (HLA-A*03:01; [4]): ≥ 33300 nM | Kd (HLA-A*11:01; [4]): 1880 nM | Kd (HLA-A*31:01; [4]): 650 nM | Kd (HLA-A*33:01; [4]): 540 nM | Kd (HLA-A*68:01; [4]): 315 nM

SRILFAQEK
Kd (HLA-A*03:01; [5]): 15700 nM | Kd (HLA-A*11:01; [5]): 773 nM | Kd (HLA-A*31:01; [5]): ≥ 38700 nM | Kd (HLA-A*33:01; [5]): ≥ 77700 nM | Kd (HLA-A*68:01; [5]): 7330 nM

SSFDYCGMDH
Kd (HLA-A*03:01; [6]): 13800 nM | Kd (HLA-A*11:01; [6]): 6580 nM | Kd (HLA-A*31:01; [6]): 10600 nM | Kd (HLA-A*33:01; [6]): ≥ 48900 nM | Kd (HLA-A*68:01; [6]): 3400 nM

SSKGNCAIK
Kd (HLA-A*03:01; [1]): 6770 nM | Kd (HLA-A*11:01; [1]): 2150 nM | Kd (HLA-A*31:01; [1]): 2150 nM | Kd (HLA-A*33:01; [1]): 17700 nM | Kd (HLA-A*68:01; [1]): 3480 nM

SSNKDPITVY
Kd (HLA-A*03:01; [1]): ≥ 70100 nM | Kd (HLA-A*11:01; [1]): 1880 nM | Kd (HLA-A*31:01; [1]): ≥ 50900 nM | Kd (HLA-A*33:01; [1]): ≥ 70000 nM | Kd (HLA-A*68:01; [1]): ≥ 42800 nM

SSPPIPMSR
Kd (HLA-A*03:01; [1]): 7270 nM | Kd (HLA-A*11:01; [1]): 406 nM | Kd (HLA-A*31:01; [1]): 10400 nM | Kd (HLA-A*33:01; [1]): 15500 nM | Kd (HLA-A*68:01; [1]): 764 nM

SSSIDVDKR
Kd (HLA-A*03:01; [1]): ≥ 78000 nM | Kd (HLA-A*11:01; [1]): 4750 nM | Kd (HLA-A*31:01; [1]): 8950 nM | Kd (HLA-A*33:01; [1]): ≥ 35000 nM | Kd (HLA-A*68:01; [1]): 146 nM

STCSAVTDR
Kd (HLA-A*03:01; [1]): ≥ 31000 nM | Kd (HLA-A*11:01; [1]): 31.2 nM | Kd (HLA-A*31:01; [1]): 119 nM | Kd (HLA-A*33:01; [1]): 1390 nM | Kd (HLA-A*68:01; [1]): 55.1 nM

STDNAVYQCR
Kd (HLA-A*03:01; [1]): 5720 nM | Kd (HLA-A*11:01; [1]): 35.4 nM | Kd (HLA-A*31:01; [1]): 427 nM | Kd (HLA-A*33:01; [1]): 2890 nM | Kd (HLA-A*68:01; [1]): 81.3 nM

STSLSEEFFH
Kd (HLA-A*03:01; [6]): ≥ 43100 nM | Kd (HLA-A*11:01; [6]): 4310 nM | Kd (HLA-A*31:01; [6]): 14700 nM | Kd (HLA-A*33:01; [6]): ≥ 64800 nM | Kd (HLA-A*68:01; [6]): 13200 nM

SVLCVKKFYK
Kd (HLA-A*03:01; [1]): 1.14 nM | Kd (HLA-A*11:01; [1]): 0.302 nM | Kd (HLA-A*31:01; [1]): 0.785 nM | Kd (HLA-A*33:01; [1]): 12.2 nM | Kd (HLA-A*68:01; [1]): 1.01 nM

SVNEYHMLK
Kd (HLA-A*03:01; [1]): 6.1 nM | Kd (HLA-A*11:01; [1]): 2.23 nM | Kd (HLA-A*31:01; [1]): 6.92 nM | Kd (HLA-A*33:01; [1]): 85.7 nM | Kd (HLA-A*68:01; [1]): 2.24 nM

SVYAWERKK
Kd (HLA-A*03:01; [7]): 134 nM | Kd (HLA-A*11:01; [7]): 230 nM | Kd (HLA-A*31:01; [7]): 1940 nM | Kd (HLA-A*33:01; [7]): ≥ 38700 nM | Kd (HLA-A*68:01; [7]): 5320 nM

TFKIDAVRYY
Kd (HLA-A*03:01; [1]): ≥ 70100 nM | Kd (HLA-A*11:01; [1]): 12100 nM | Kd (HLA-A*31:01; [1]): ≥ 20700 nM | Kd (HLA-A*33:01; [1]): ≥ 43400 nM | Kd (HLA-A*68:01; [1]): 1430 nM

THLGPQFCK
Kd (HLA-A*03:01; [8]): 880 nM | Kd (HLA-A*11:01; [8]): 284 nM | Kd (HLA-A*31:01; [8]): 15900 nM | Kd (HLA-A*33:01; [8]): ≥ 77700 nM | Kd (HLA-A*68:01; [8]): 338 nM

TISKDNLER
Kd (HLA-A*03:01; [1]): 2620 nM | Kd (HLA-A*11:01; [1]): 170 nM | Kd (HLA-A*31:01; [1]): 175 nM | Kd (HLA-A*33:01; [1]): 490 nM | Kd (HLA-A*68:01; [1]): 18.1 nM

TLGSFTWFPH
Kd (HLA-A*03:01; [9]): 428 nM | Kd (HLA-A*11:01; [9]): 4990 nM | Kd (HLA-A*31:01; [9]): 782 nM | Kd (HLA-A*33:01; [9]): 13400 nM | Kd (HLA-A*68:01; [9]): ≥ 25700 nM

TVWEVQGYK
Kd (HLA-A*03:01; [7]): 2.91 nM | Kd (HLA-A*11:01; [7]): 0.757 nM | Kd (HLA-A*31:01; [7]): 47.7 nM | Kd (HLA-A*33:01; [7]): 129 nM | Kd (HLA-A*68:01; [7]): 0.913 nM
